{
  "source": "patent US20240409618A1",
  "molecular_target": "SARS-CoV-2 spike protein (isolate USA-WA1/2020) on pseudotyped virus (SARS-CoV-2 (USA-WA1/2020)) (UniProt P0DTC2)",
  "assay": "cell-based or functional assay",
  "data": [
    {"substance": "DMAb 2130_FcTM (antibody)", "values": [
      {"measurement": "serum potency (IC50), neutralization of WA1/2020 pseudovirus", "result": "1 to 2", "unit": "ng/mL"}
    ]}
  ]
}
